Experimental findings from patent US20150079112A1 (SAMSUNG ELECTRONICS, published 2015) are described below.

First the molecules themselves.
B2: FLAG-tagged hAng2 (ligand)
chain: YNNFRKSMDSIGKKQYQVQHGSCSYTFLLPEMDNCRSSSSPYVSNAVQRDAPLEYDDSVQRLQVLENIMENNTQWLMKLENYIQDNMKKEMVEIQQNAVQNQTAVMIEIGTNLLNQTAEQTRKLTDVEAQVLNQTTRLELQLLEHSLSTNKLEKQILDQTSEINKLQDKNSFLEKKVLAMEDKHIIQLQSIKEEKDQLQVLVSKQNSIIEELEKKIVTATVNNSVLQKQQHDLMETVNNLLTMMSTSNSAKDPTVAKEEQISFRDCAEVFKSGHTTNGIYTLTFPNSTEEIKAYCDMEAGGGGWTIIQRREDGSVDFQRTWKEYKVGFGNPSGEYWLGNEFVSQLTNQQRYVLKIHLKDWEGNEAYSLYEHFYLSSEELNYRIHLKGLTGTAGKISSISQPGNDFSTKDGDNDKCICKCSQMLTGGWWFDACGPSNLNGMYYPQRQNTNKFNGIKWYYWKGSGYSLKATTMMIRPADF
notes: not shown: FLAG tag

The test “FLAG-tagged hAng2” has as its target B2. Briefly: competition ELISA: antibody titrated with FLAG-tagged hAng2 (400 ng/ml) on coated hTie2-Fc, bound Ang2 detected with anti-FLAG-HRP; blocked ligand pair Ang2-Tie2. As to the method: (§1) More specifically, MaxiSorp™ flat-bottom plate (Nunc) of 96-well was coated with hTie2-Fc (R&D Systems) which is a protein bound with 4 ug (microgram)/ml of Fc of human IgG1. After that, the plate was washed five times with 0.05% (v/v) Tween-20-containing PBS (phosphate buffer saline) and then blocked with 1% (v/v) BSA (bovine serum albumin; Sigma)-containing PBS at a room temperature for 2 hour.
For Ang2:Tie2 competition ELISA, each anti-Ang2 antibody obtained in Example 2 was placed at various concentrations of 400 nM to 0.001 nM into each well coated with the hTie-2/Fc fusion protein along with 1% (v/v) BSA and 400 ng/ml of a FLAG-tagged hAng2 and then, the plate was allowed to react at a room temperature for 2 hours and washed five times with PBST. After that, an anti-FLAG antibody (Sigma) conjugated with HRP diluted in 1% (v/v) BSA-containing PBS at a ratio of 1:5,000 (v/v) was added in an amount of 100 ul (microliter) to each well to react at a room temperature for 1 hour and then, the plate was washed five times with PBST. Lastly, 100 ul (microliter) of TMB substrate (Cell Signaling) was added to each well of the plate to induce color development for 3 min. and then, the reaction was ceased by the addition of 100 ul of Stop solution (Cell Signaling) and OD450 values were measured on a plate reader (Molecular Devices). […]

Test [1] has as its target T1, hTie2-Fc (R&D Systems) (human, UniProt Q02763 23-745).
T1 construct: also called hTie-2/Fc fusion protein; not shown: Fc of human IgG1
Description: competition ELISA: FLAG-tagged hAng2 (400 ng/ml) bound to coated hTie2-Fc in the presence of titrated 10D6, detected with anti-FLAG-HRP. As to the method: as §1
For Ang2:Tie2 competition ELISA, each anti-Ang2 antibody obtained in Example 2 was placed at various concentrations of 400 nM to 0.001 nM into each well coated with the hTie-2/Fc fusion protein along with 1% (v/v) BSA and 400 ng/ml of a FLAG-tagged hAng2 and then, the plate was allowed to react at a room temperature for 2 hours and washed five times with PBST. After that, an anti-FLAG antibody (Sigma) conjugated with HRP diluted in 1% (v/v) BSA-containing PBS at a ratio of 1:5,000 (v/v) was added in an amount of 100 ul (microliter) to each well to react at a room temperature for 1 hour and then, the plate was washed five times with PBST. Lastly, 100 ul (microliter) of TMB substrate (Cell Signaling) was added to each well of the plate to induce color development for 3 min. and then, the reaction was ceased by the addition of 100 ul of Stop solution (Cell Signaling) and OD450 values were measured on a plate reader (Molecular Devices).
In general terms: An ELISA detects its analyte on a solid surface through an enzyme-linked reagent.

Test [2] concerns the target T1, hTie2-Fc (R&D Systems). Description: ELISA, coated Tie2-Fc 4 ug/ml, Ang2 0.25 ug/ml and 10D6 2 ug/ml added, anti-mouse IgG-HRP, OD450. As to the method:
A 96-well MaxiSorp™ flat-bottom plate (Nunc) was coated with 4 ug/ml of Tie2-Fc (R&D systems) or BSA (Sigma). Then, the plate was washed five times with 0.05% (v/v) Tween-20-containing PBS (Phosphate Buffer Saline) and blocked with 1% (v/v) BSA (Bovine serum albumin; Sigma)-containing PBS at a room temperature for 2 hours. 0.25 ug/ml of Ang2 and 2 ug/ml of antibody 10D6 were added to each well of the plate, which was allowed to react at a room temperature for 2 hours and then washed five times with PBST. After that, an anti-mouse IgG antibody (Sigma) conjugated with HRP diluted in 1% (v/v) BSA-containing PBS at a ratio of 1:5,000 (v/v) was added in an amount of 100 ul to each well to react at a room temperature for 1 hour and then, the plate was washed five times with PBST. Lastly, 100 ul (microliter) of TMB substrate (Cell Signaling) was added to each well of the plate to induce color development for 3 min. and then, the reaction was ceased by the addition of 100 ul of Stop solution (Cell Signaling) and OD450 values were measured on a plate reader (Molecular Devices).

T1 sequence (Q02763 23-745 limits assumed): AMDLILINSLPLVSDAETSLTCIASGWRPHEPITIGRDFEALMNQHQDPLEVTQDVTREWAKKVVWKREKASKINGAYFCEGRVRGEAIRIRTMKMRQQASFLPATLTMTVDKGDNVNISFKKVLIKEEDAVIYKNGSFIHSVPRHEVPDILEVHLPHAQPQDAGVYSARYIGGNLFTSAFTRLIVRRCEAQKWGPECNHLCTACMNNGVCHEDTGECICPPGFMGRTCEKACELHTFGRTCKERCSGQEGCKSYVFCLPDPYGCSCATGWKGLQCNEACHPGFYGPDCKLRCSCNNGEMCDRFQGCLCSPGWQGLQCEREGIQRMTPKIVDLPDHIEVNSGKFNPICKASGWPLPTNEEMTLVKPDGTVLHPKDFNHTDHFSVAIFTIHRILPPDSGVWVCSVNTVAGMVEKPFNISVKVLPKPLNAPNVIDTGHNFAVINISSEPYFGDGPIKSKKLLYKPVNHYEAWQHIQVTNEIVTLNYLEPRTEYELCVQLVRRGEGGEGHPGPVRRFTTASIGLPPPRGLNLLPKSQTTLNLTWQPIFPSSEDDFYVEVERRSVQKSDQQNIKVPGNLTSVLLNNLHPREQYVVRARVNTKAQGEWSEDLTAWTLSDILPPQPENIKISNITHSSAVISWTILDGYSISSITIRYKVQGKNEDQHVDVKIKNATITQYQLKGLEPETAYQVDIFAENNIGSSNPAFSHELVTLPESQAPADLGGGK

B1: 4H10 (antibody, V domains shown)
VH: EVQLLESGGGLVQPGGSLRLSCAASGFTFSSYDMSWVRQAPGKGLEWVSLISPDSSSIYYADSVKGRFTISRDNSKNTLYLQMNSLRAEDTAVYYCAKDLISFWRGGFDYWGQGTLVTVSS
VL: QSVLTQPPSASGTPGQRVTISCSGSSSNIGSNYVNWYQQLPGTAPKLLIYADSNRPSGVPDRFSGSKSGTSASLAISGLRSEDEADYYCGSWDYSLSGYVFGGGTKLTVLG
notes: also called antibody 4H10
In the case of B1, the “IC50 (read off the curve)” value with FLAG-tagged hAng2 was ~0.2 nM. B2: the binding result with hTie2-Fc (R&D Systems) [1] is recorded as “binds”.

B3: Ang2 protein (R&D systems) (ligand)
chain: YNNFRKSMDSIGKKQYQVQHGSCSYTFLLPEMDNCRSSSSPYVSNAVQRDAPLEYDDSVQRLQVLENIMENNTQWLMKLENYIQDNMKKEMVEIQQNAVQNQTAVMIEIGTNLLNQTAEQTRKLTDVEAQVLNQTTRLELQLLEHSLSTNKLEKQILDQTSEINKLQDKNSFLEKKVLAMEDKHIIQLQSIKEEKDQLQVLVSKQNSIIEELEKKIVTATVNNSVLQKQQHDLMETVNNLLTMMSTSNSAKDPTVAKEEQISFRDCAEVFKSGHTTNGIYTLTFPNSTEEIKAYCDMEAGGGGWTIIQRREDGSVDFQRTWKEYKVGFGNPSGEYWLGNEFVSQLTNQQRYVLKIHLKDWEGNEAYSLYEHFYLSSEELNYRIHLKGLTGTAGKISSISQPGNDFSTKDGDNDKCICKCSQMLTGGWWFDACGPSNLNGMYYPQRQNTNKFNGIKWYYWKGSGYSLKATTMMIRPADF
notes: It may be the same product as the C-His hAng2 of the SPR; also called human Ang2 protein (R&D systems; 623-AN-025/CF)
Turning to B3, the binding result in the test with hTie2-Fc (R&D Systems) [2] is reported as “binds”.
